The source of these data is patent US20260234267A1 (KAIGENE, published 2026).

Numbering of substitutions follows the chain as printed. In names and notes the source's numbering stands.

To fix the notation:
B1: VH2/VL6 humanized anti-CD11b antibody (antibody, human IgG4 S228P, kappa, V domains shown)
VH: QVQLVQSGAEVKKPGSSVKVSCKASGYAFINYLIEWVKQAPGQGLEWIGVINPGSGGTNYNEKFKGRATLTADKSTSTAYMELSSLRSEDTAVYFCARGDDYDDYTMDYWGQGTLVTVSS
VL: EIVLTQSPATLSLSPGERATLSCRASQSISNNLHWYQQKPGQAPRLLIKYASQSESGIPSRFSGSGSGTDFTLTISSLEPEDFGMYFCQQSNSWPLTFGQGTKLEIKR
notes: Lead candidate; IgG4 with S241P and L248E; also called VH2 with VL6
B2: VH4/VL2 humanized anti-CD11b antibody (antibody, V domains shown)
VH: B1 VH with A68V, L70I, F95Y
VL: DIVLTQSPATLSLSPGERATLSCRASQSISNNLHWYQQKPGQAPRLLIKYASQSMSGIPSRFSGSGSGTDFTLTISSLEPEDFGMYFCQQSNSWPLTFGQGTKLEIK
notes: Member of the group 'the variants with VH4 or VH5'; One of the 30 humanized variants
B3: VH4/VL6 humanized anti-CD11b antibody (antibody, human IgG4 S228P, kappa, V domains shown)
VH: B1 VH with A68V, L70I, F95Y
VL: B1 VL
notes: Lead candidate; IgG4 with S241P and L248E; also called VH4 with VL6
B4: VH1/VL6 humanized anti-CD11b antibody (antibody, human IgG4 S228P, kappa, V domains shown)
VH: B1 VH with V5Q, V11L, K13R, R67K, T76S, E89D, T91S, L115S
VL: B1 VL
notes: Lead candidate; IgG4 with S241P and L248E; also called VH1 with VL6
B5: VH2/VL3 humanized anti-CD11b antibody (antibody, human IgG4 S228P, kappa)
heavy: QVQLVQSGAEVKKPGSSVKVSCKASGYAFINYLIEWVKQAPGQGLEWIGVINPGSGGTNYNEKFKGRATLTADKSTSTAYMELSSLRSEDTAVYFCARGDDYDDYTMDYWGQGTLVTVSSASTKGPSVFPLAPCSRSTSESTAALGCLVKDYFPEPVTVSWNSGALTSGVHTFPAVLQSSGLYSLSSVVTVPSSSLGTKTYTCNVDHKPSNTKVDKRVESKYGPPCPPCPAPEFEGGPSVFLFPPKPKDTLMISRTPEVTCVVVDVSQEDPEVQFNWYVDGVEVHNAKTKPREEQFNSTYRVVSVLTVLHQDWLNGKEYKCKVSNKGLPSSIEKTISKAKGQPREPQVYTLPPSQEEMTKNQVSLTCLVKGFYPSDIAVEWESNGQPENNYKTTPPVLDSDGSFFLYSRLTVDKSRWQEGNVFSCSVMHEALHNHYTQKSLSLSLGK
light: EIVLTQSPATLSLSPGERATLSCRASQSISNNLHWYQQKPGQAPRLLIKYASQSMSGIPSRFSGSGSGTDFTLTISSLEPEDFGMYFCQQSNSWPLTFGQGTKLEIKRTVAAPSVFIFPPSDEQLKSGTASVVCLLNNFYPREAKVQWKVDNALQSGNSQESVTEQDSKDSTYSLSSTLTLSKADYEKHKVYACEVTHQGLSSPVTKSFNRGEC
notes: Lead candidate; IgG4 with S241P and L248E; also called VH2 with VL3
B6: VH2/VL2 humanized anti-CD11b antibody (antibody, human IgG4 S228P, kappa)
heavy: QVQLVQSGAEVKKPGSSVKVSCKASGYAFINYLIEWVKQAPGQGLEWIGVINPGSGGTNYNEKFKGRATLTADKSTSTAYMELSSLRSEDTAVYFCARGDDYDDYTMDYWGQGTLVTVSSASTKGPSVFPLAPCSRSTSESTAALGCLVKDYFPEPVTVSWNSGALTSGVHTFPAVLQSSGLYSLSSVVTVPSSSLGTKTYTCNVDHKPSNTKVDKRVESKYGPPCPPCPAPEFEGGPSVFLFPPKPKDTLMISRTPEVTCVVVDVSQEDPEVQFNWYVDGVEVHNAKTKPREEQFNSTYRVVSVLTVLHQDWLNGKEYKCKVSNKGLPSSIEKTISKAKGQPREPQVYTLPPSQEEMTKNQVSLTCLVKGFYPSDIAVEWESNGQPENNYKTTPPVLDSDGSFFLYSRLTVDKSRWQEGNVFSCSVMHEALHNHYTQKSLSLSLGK
light: B5 light with E1D
notes: Lead candidate; IgG4 with S241P and L248E; also called VH2 with VL2
B7: VH4/VL3 humanized anti-CD11b antibody (antibody, V domains shown)
VH: B1 VH with A68V, L70I, F95Y
VL: B2 VL with D1E
notes: as for B2

This experiment deals with Mac-1 (CD11b/CD18 integrin) on polymorphonuclear leukocytes (PMNs) of healthy human donors (human, UniProt P11215 17-1152; P05107 23-769). As to the kind of experiment: flow cytometry, 30 µg/mL antibody on untreated versus PMA-treated human WBCs, % CD11b+ cells of live PMNs. The procedure: FIG. 3 is a chart showing the results of a flow cytometry analysis of activated polymorphonuclear leukocytes (“PMNs”) stained using 30 humanized anti-CD11b constructs prepared according to the present disclosure. The percentages of CD11b+ cells in live PMN were calculated by a gating based on a control, which is the cells stained with human IgG4 isotype, and are presented as means S.E.M. from four independent experiments. The white bars are CD11b+ cells in untreated white blood cells (WBCs), while the black bars are CD11b+ cells in PMA-treated WBCs.
The baseline CBRM1/5 antibody can distinguish between non-activated (resting) and activated form of Mac-1. In order to validate that humanized variants retained this characteristic, WBCs were isolated from 4 healthy human donors and activated in the absence or presence of phorbol 12-myristate-13-acetate (PMA). The cells were then stained with 30 μg/mL of each of the 30 humanized variants along with control antibody (human IgG4 isotype) and analyzed using flow cytometry. The percentages of CD11b+ cells in live PMNs were calculated by a gating based on a control, which is the cells stained with human IgG4 isotype, and are presented as means S.E.M. from four independent experiments. Variants containing VL5 lost a binding to Mac-1 in polymorphonuclear leukocytes (PMNs) regardless of the pairings with any VH variant (FIGS. 3-4). […] However, VH1/VL6 and all variants with VH2 preserved the characteristic of CBRM1/5 that can distinguish between non-activated (resting) and activated form of Mac-1, while the variants with VH4 or VH5 were likely to lose the specificity of the parental antibody, CBRM1/5 (FIGS. 3-4).
Background: A flow cytometer gives signals particle by particle.
As for B1, the binding result is on record as “binds”.
Next, B2: “binds”; B3: “binds”; B4: “binds”.
The entry for B5 is “binds”.
The entry for B6 is “binds”.
As to B7, the binding result was “binds”.
